{"source": "paper PMC4149556", "molecular_target": "T1, Rev (HIV-1) (UniProt P04618)", "T1 sequence": "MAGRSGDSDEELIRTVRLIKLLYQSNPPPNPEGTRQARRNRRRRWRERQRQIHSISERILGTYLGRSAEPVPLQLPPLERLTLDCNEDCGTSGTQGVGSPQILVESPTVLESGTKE", "test": "EMSA", "conditions": "native 4% PAGE; constant 32P-RRE RNA with 20, 40 or 80 ng Rev; buffer, salt, pH and temperature not given", "data": [{"sequence": "GAGAAGAGUGGUGCAGAGAGAAAAAAGAGCAGUGGGAACAAUAGGAGCUAUGUUCCUUGGGUCCUUGGGAGCAGCAGGAAGCACUAUGGGCGCAGCGUCAAUAACGCUGACGGUACAGGCCAGACAAUUACUGUCUGGUAUAGUGCAACAGCAAAACAACUUGCUGAGGGCUAUUGAGGCGCAACAACAUCUGUUGCAACUCACAGUCUGGGGCAUCAAGCAGCUCCAGGCGAGAGUCCUGGCUGUGGAAAGAUACCUAAGGGAUCAACAGCUCCUAGGGAUUUGGGGUUGCUCUGGAAGACUCAUUUGCACCACUGCUGUGCCUUGGAAUG [RREWT (40Q-45L)]", "values": [{"measurement": "binding signal (% RNA shifted)", "value": 96}]}]}
